Results on one molecule are retold here after patent publication CN113637078A (WEST CHINA HOSPITAL SICHUAN UNIV, dated 2021).

By Kd is commonly meant a measure of binding affinity in units of concentration.

For assay [1], the target named is T1, 蛋白激酶p38δ with 2×Strep tag (pET28a-p38δ-2×Strep) (Homo sapiens (Human), UniProt O15264 1-365).
T1 construct: Recombinant, from E. coli BL21(DE3); The tag is placed at the C-terminus only on the strength of the vector name pET28a-p38γ/p38δ-2×Strep; Linkers and other vector residues are not described; not shown: 2×Strep tag
T1 sequence: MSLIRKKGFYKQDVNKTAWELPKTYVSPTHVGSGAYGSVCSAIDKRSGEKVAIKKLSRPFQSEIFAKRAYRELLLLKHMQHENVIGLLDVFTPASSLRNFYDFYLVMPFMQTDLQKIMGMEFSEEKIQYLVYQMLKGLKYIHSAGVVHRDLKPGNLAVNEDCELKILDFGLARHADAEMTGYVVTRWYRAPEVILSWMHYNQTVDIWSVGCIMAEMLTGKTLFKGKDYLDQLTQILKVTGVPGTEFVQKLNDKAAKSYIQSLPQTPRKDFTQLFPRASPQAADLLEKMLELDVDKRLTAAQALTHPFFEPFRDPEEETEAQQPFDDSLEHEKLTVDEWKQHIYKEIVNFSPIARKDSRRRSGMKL
Put plainly: indirect ELISA, p38δ coated, nanobody at 0-6.4 μM, anti-FLAG detection, 4-parameter fit. A general note: An ELISA detects its analyte on a solid surface through an enzyme-linked reagent.

A further assay deals with p38β (UniProt Q15759 1-364, limits assumed). Put plainly: ELISA, antigen coated on plate, periplasmic extract of the nanobody, anti-FLAG detection, OD450.
For another assay, the target named is p38α (UniProt Q16539 1-360, limits assumed). Described as above.
Assay [2] concerns the target T2, p38γ with 2×Strep tag (pET28a-p38γ-2×Strep) (Homo sapiens (Human), UniProt P53778 1-367).
T2 construct: Recombinant, from E. coli BL21(DE3); The tag is placed at the C-terminus only on the strength of the vector name; not shown: 2×Strep tag
T2 sequence: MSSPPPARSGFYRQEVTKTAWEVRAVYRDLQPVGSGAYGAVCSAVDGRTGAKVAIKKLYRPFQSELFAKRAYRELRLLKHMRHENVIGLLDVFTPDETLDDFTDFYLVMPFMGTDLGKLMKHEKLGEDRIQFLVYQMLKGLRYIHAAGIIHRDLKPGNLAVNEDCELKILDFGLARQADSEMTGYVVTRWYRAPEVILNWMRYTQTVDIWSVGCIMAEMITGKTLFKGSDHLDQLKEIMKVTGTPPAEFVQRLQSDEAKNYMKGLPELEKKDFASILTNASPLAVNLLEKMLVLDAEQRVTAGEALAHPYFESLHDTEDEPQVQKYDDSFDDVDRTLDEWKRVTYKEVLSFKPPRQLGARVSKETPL
The assay is described as above.

Chain of p38α (Q16539 whole entry): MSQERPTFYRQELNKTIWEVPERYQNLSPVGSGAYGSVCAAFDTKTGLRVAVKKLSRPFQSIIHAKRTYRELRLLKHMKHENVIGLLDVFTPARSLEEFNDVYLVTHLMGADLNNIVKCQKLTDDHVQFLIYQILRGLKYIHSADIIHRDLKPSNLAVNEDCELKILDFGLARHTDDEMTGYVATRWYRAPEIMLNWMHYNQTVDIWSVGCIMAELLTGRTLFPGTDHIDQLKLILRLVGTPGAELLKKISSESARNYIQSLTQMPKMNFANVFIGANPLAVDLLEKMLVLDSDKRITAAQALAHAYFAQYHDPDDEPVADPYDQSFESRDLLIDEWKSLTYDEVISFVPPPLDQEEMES
Chain of p38β (Q15759 whole entry): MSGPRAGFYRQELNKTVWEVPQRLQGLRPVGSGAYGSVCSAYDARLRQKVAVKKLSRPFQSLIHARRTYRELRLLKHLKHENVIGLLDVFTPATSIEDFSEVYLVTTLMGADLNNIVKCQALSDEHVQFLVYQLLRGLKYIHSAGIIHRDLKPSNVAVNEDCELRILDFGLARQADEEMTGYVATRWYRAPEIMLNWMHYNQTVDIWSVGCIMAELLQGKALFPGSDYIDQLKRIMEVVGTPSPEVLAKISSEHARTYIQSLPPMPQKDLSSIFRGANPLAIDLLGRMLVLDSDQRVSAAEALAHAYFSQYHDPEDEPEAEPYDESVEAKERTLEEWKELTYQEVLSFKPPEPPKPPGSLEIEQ

B1: 纳米抗体Nb13-6 (nanobody against protein kinase p38δ), C-terminal FLAG tag (VHH)
VHH: QVQLVESGGALVQPGGSLRLSCAASGLEPSMFSLRWYRQAPGKEREWVCGISKWFDDMSYEDSVKGRFTCSRDDARNTVYLQLNSLKPEDTAVYYCASLRPTFLPGLMRTRYWGQGTQVTVSS
notes: Expressed from pET22b in E. coli BL21(DE3); Used mostly as periplasmic extract; Other vector-derived residues are not described; also called 针对蛋白激酶p38δ的纳米抗体; not shown: FLAG tag fused at the C-terminus
As for B1, the Kd in assay [1] came out at 0.499 µM. For the same molecule, the binding result (with p38β; in the assay with p38α; in assay [2]) was “no binding” in each case.
